This data set deals with the molecule itself. The data set can be described thus: SDS-PAGE and immunoblot. (Immunoblotting shows a protein as a band on a membrane.)

B1: intestinal lactoferrin receptor (LfR) (receptor, human (endogenous in Caco-2), UniProt Q8WWA0 19-298, looked up)
chain: TDEANTYFKEWTCSSSPSLPRSCKEIKDECPSAFDGLYFLRTENGVIYQTFCDMTSGGGGWTLVASVHENDMRGKCTVGDRWSSQQGSKAVYPEGDGNWANYNTFGSAEAATSDDYKNPGYYDIQAKDLGIWHVPNKSPMQHWRNSSLLRYRTDTGFLQTLGHNLFGIYQKYPVKYGEGKCWTDNGPVIPVVYDFGDAQKTASYYSPYGQREFTAGFVQFRVFNNERAANALCAGMRVTGCNTEHHCIGGGGYFPEASPQQCGDFSGFDWSGYGTHVGYS
Consider B1, for which the “stoichiometry N” value was determined as 3.

One may read the stoichiometry N as the number of molecules, sites or subunits per partner or assembly.

Values taken from publication PMC3178039 (Journal of cellular physiology, 2011).
